± gives the uncertainty stated by the source.
B1: Intersectin-2, residues 1129 to 1183; numbered along this chain, Q9NZM3 (parent)
chain: VCQVIAMYDYAANNEDELSFSKGQLINVMNKDDPDWWQGEINGVTGLFPSNYVKM

Variants of: B1
Experiment: abundance fitness (aPCA) (normalised: wild type 0, dead -1); higher = more abundant; growth selection in yeast, the domain comes from the species named
Details: Homo sapiens

Q: With VCQVIAMYDYAANNEDEHSFSKGQLINVMNKDDPDWWQGEINGVTGLFPSNYVKM [L18H] as the variant, how does the abundance fitness read?
A: The abundance fitness was -0.512 ± 0.076.

Q: Which abundance fitness does the source give for VCQVIAMYDYAANNEDEDSFSKGQLINVMNKDDPDWWQGEINGVTGLFPSNYVKM [L18D] here?
A: Its abundance fitness is -1.04 ± 0.21.

Q: For VCQVIAMYDYAANNEDESSFSKGQLINVMNKDDPDWWQGEINGVTGLFPSNYVKM [L18S], which abundance fitness is on record?
A: The abundance fitness was -0.854 ± 0.064.

Q: Which abundance fitness does the source give for VCQVIAMYDYAANNEDERSFSKGQLINVMNKDDPDWWQGEINGVTGLFPSNYVKM [L18R] here?
A: Its abundance fitness is -0.979 ± 0.072.

Q: Which abundance fitness does the source give for VCQVIAMYDYAANNEDEMSFSKGQLINVMNKDDPDWWQGEINGVTGLFPSNYVKM [L18M] here?
A: Its abundance fitness is -0.046 ± 0.054.

Q: With VCQVIAMYDYAANNEDEWSFSKGQLINVMNKDDPDWWQGEINGVTGLFPSNYVKM [L18W] as the variant, how does the abundance fitness read?
A: Its abundance fitness is -0.841 ± 0.077.

Q: For VCQVIAMYDYAANNEDEVSFSKGQLINVMNKDDPDWWQGEINGVTGLFPSNYVKM [L18V], which abundance fitness is on record?
A: The abundance fitness was -0.092 ± 0.041.

Q: Which abundance fitness does the source give for VCQVIAMYDYAANNEDEYSFSKGQLINVMNKDDPDWWQGEINGVTGLFPSNYVKM [L18Y] here?
A: Its abundance fitness is -0.966 ± 0.16.

Q: Which abundance fitness does the source give for VCQVIAMYDYAANNEDEISFSKGQLINVMNKDDPDWWQGEINGVTGLFPSNYVKM [L18I] here?
A: Its abundance fitness is -0.001 ± 0.058.

Q: With VCQVIAMYDYAANNEDEKSFSKGQLINVMNKDDPDWWQGEINGVTGLFPSNYVKM [L18K] as the variant, how does the abundance fitness read?
A: The abundance fitness was -0.647 ± 0.082.

Q: For VCQVIAMYDYAANNEDEFSFSKGQLINVMNKDDPDWWQGEINGVTGLFPSNYVKM [L18F], which abundance fitness is on record?
A: Its abundance fitness is -0.2 ± 0.057.

Q: For VCQVIAMYDYAANNEDEGSFSKGQLINVMNKDDPDWWQGEINGVTGLFPSNYVKM [L18G], which abundance fitness is on record?
A: The abundance fitness was -0.861 ± 0.056.

Q: With VCQVIAMYDYAANNEDENSFSKGQLINVMNKDDPDWWQGEINGVTGLFPSNYVKM [L18N] as the variant, how does the abundance fitness read?
A: Its abundance fitness is -0.783 ± 0.18.

Q: Which abundance fitness does the source give for VCQVIAMYDYAANNEDEPSFSKGQLINVMNKDDPDWWQGEINGVTGLFPSNYVKM [L18P] here?
A: The abundance fitness was -0.895 ± 0.18.

Q: Which abundance fitness does the source give for VCQVIAMYDYAANNEDEQSFSKGQLINVMNKDDPDWWQGEINGVTGLFPSNYVKM [L18Q] here?
A: The abundance fitness was -0.704 ± 0.12.

Q: Which abundance fitness does the source give for VCQVIAMYDYAANNEDETSFSKGQLINVMNKDDPDWWQGEINGVTGLFPSNYVKM [L18T] here?
A: Its abundance fitness is -0.778 ± 0.053.

Q: Which abundance fitness does the source give for VCQVIAMYDYAANNEDELSLSKGQLINVMNKDDPDWWQGEINGVTGLFPSNYVKM [F20L] here?
A: The abundance fitness was -0.079 ± 0.036.

Q: With VCQVIAMYDYAANNEDELSHSKGQLINVMNKDDPDWWQGEINGVTGLFPSNYVKM [F20H] as the variant, how does the abundance fitness read?
A: The abundance fitness was -0.988 ± 0.21.

Q: Which abundance fitness does the source give for VCQVIAMYDYAANNEDELSISKGQLINVMNKDDPDWWQGEINGVTGLFPSNYVKM [F20I] here?
A: Its abundance fitness is -0.163 ± 0.061.

Q: For VCQVIAMYDYAANNEDELSVSKGQLINVMNKDDPDWWQGEINGVTGLFPSNYVKM [F20V], which abundance fitness is on record?
A: The abundance fitness was -0.357 ± 0.029.

Q: With VCQVIAMYDYAANNEDELSQSKGQLINVMNKDDPDWWQGEINGVTGLFPSNYVKM [F20Q] as the variant, how does the abundance fitness read?
A: Its abundance fitness is -0.844 ± 0.09.

Q: With VCQVIAMYDYAANNEDELSDSKGQLINVMNKDDPDWWQGEINGVTGLFPSNYVKM [F20D] as the variant, how does the abundance fitness read?
A: Its abundance fitness is -1.03 ± 0.28.

Q: Which abundance fitness does the source give for VCQVIAMYDYAANNEDELSKSKGQLINVMNKDDPDWWQGEINGVTGLFPSNYVKM [F20K] here?
A: Its abundance fitness is -0.921 ± 0.072.

Q: With VCQVIAMYDYAANNEDELSASKGQLINVMNKDDPDWWQGEINGVTGLFPSNYVKM [F20A] as the variant, how does the abundance fitness read?
A: Its abundance fitness is -0.998 ± 0.11.

Q: With VCQVIAMYDYAANNEDELSMSKGQLINVMNKDDPDWWQGEINGVTGLFPSNYVKM [F20M] as the variant, how does the abundance fitness read?
A: The abundance fitness was -0.26 ± 0.051.

Q: With VCQVIAMYDYAANNEDELSRSKGQLINVMNKDDPDWWQGEINGVTGLFPSNYVKM [F20R] as the variant, how does the abundance fitness read?
A: The abundance fitness was -0.98 ± 0.078.

Q: For VCQVIAMYDYAANNEDELSTSKGQLINVMNKDDPDWWQGEINGVTGLFPSNYVKM [F20T], which abundance fitness is on record?
A: The abundance fitness was -0.88 ± 0.054.

Q: Which abundance fitness does the source give for VCQVIAMYDYAANNEDELSSSKGQLINVMNKDDPDWWQGEINGVTGLFPSNYVKM [F20S] here?
A: The abundance fitness was -0.871 ± 0.04.

Q: With VCQVIAMYDYAANNEDELSYSKGQLINVMNKDDPDWWQGEINGVTGLFPSNYVKM [F20Y] as the variant, how does the abundance fitness read?
A: Its abundance fitness is -0.497 ± 0.062.

Q: Which abundance fitness does the source give for VCQVIAMYDYAANNEDELSCSKGQLINVMNKDDPDWWQGEINGVTGLFPSNYVKM [F20C] here?
A: The abundance fitness was -0.596 ± 0.099.

Q: Which abundance fitness does the source give for VCQVIAMYDYAANNEDELSPSKGQLINVMNKDDPDWWQGEINGVTGLFPSNYVKM [F20P] here?
A: The abundance fitness was -0.919 ± 0.11.

Q: For VCQVIAMYDYAANNEDELSFSKPQLINVMNKDDPDWWQGEINGVTGLFPSNYVKM [G23P], which abundance fitness is on record?
A: The abundance fitness was -1.06 ± 0.12.

Q: For VCQVIAMYDYAANNEDELSFSKKQLINVMNKDDPDWWQGEINGVTGLFPSNYVKM [G23K], which abundance fitness is on record?
A: Its abundance fitness is -0.103 ± 0.048.

Q: For VCQVIAMYDYAANNEDELSFSKAQLINVMNKDDPDWWQGEINGVTGLFPSNYVKM [G23A], which abundance fitness is on record?
A: The abundance fitness was -0.161 ± 0.041.

Q: Which abundance fitness does the source give for VCQVIAMYDYAANNEDELSFSKNQLINVMNKDDPDWWQGEINGVTGLFPSNYVKM [G23N] here?
A: Its abundance fitness is 0 ± 0.041.

Q: For VCQVIAMYDYAANNEDELSFSKDQLINVMNKDDPDWWQGEINGVTGLFPSNYVKM [G23D], which abundance fitness is on record?
A: The abundance fitness was -0.016 ± 0.057.

Q: With VCQVIAMYDYAANNEDELSFSKCQLINVMNKDDPDWWQGEINGVTGLFPSNYVKM [G23C] as the variant, how does the abundance fitness read?
A: The abundance fitness was -0.247 ± 0.059.

Q: For VCQVIAMYDYAANNEDELSFSKHQLINVMNKDDPDWWQGEINGVTGLFPSNYVKM [G23H], which abundance fitness is on record?
A: The abundance fitness was 0.023 ± 0.065.

Q: For VCQVIAMYDYAANNEDELSFSKEQLINVMNKDDPDWWQGEINGVTGLFPSNYVKM [G23E], which abundance fitness is on record?
A: Its abundance fitness is -0.098 ± 0.047.

Q: With VCQVIAMYDYAANNEDELSFSKMQLINVMNKDDPDWWQGEINGVTGLFPSNYVKM [G23M] as the variant, how does the abundance fitness read?
A: Its abundance fitness is -0.262 ± 0.051.

Q: For VCQVIAMYDYAANNEDELSFSKIQLINVMNKDDPDWWQGEINGVTGLFPSNYVKM [G23I], which abundance fitness is on record?
A: The abundance fitness was -0.866 ± 0.49.

Q: For VCQVIAMYDYAANNEDELSFLKGQLINVMNKDDPDWWQGEINGVTGLFPSNYVKM [S21L], which abundance fitness is on record?
A: The abundance fitness was -0.037 ± 0.034.

Q: With VCQVIAMYDYAANNEDELSFTKGQLINVMNKDDPDWWQGEINGVTGLFPSNYVKM [S21T] as the variant, how does the abundance fitness read?
A: Its abundance fitness is -0.028 ± 0.046.

Q: Which abundance fitness does the source give for VCQVIAMYDYAANNEDELSFCKGQLINVMNKDDPDWWQGEINGVTGLFPSNYVKM [S21C] here?
A: Its abundance fitness is -0.053 ± 0.049.

Q: Which abundance fitness does the source give for VCQVIAMYDYAANNEDELSFHKGQLINVMNKDDPDWWQGEINGVTGLFPSNYVKM [S21H] here?
A: The abundance fitness was 0.082 ± 0.062.

Q: With VCQVIAMYDYAANNEDELSFAKGQLINVMNKDDPDWWQGEINGVTGLFPSNYVKM [S21A] as the variant, how does the abundance fitness read?
A: The abundance fitness was 0.001 ± 0.033.

Q: For VCQVIAMYDYAANNEDELSFEKGQLINVMNKDDPDWWQGEINGVTGLFPSNYVKM [S21E], which abundance fitness is on record?
A: The abundance fitness was -0.084 ± 0.052.

Q: For VCQVIAMYDYAANNEDELSFNKGQLINVMNKDDPDWWQGEINGVTGLFPSNYVKM [S21N], which abundance fitness is on record?
A: The abundance fitness was -0.006 ± 0.047.
